The target of data set [1] is T1, Trx::ZmOrphan94 (Zea mays B73, UniProt C0P6E9 1-264).
T1 sequence: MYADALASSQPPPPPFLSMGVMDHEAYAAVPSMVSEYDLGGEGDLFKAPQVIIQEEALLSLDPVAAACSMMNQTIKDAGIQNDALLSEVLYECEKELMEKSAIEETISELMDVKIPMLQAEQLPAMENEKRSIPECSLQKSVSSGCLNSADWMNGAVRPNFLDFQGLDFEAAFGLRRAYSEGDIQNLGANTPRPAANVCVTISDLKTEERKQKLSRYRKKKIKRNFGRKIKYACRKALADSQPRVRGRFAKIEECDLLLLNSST
Kind of data set: EMSA; strongest band; out-competed by unlabelled WT probe (400x); EMSA: 1 ug protein, 50 fmol probe in 10 ul; 10 mM HEPES pH 7.9, 40 mM KCl, 1 mM EDTA, 1 mM DTT, 50 ng herring sperm DNA, 15 ug BSA, 10% glycerol, 1 h on ice; 5% native PAGE. The following applies: protein: recombinant; tags: N-terminal Trx (pET32a); label: 32P; 5' overhang 4 nt on each strand as annealed.

Data set [2] concerns the target T1, Trx::ZmOrphan94. Kind of data set: EMSA; out-competed by unlabelled WT probe (400x); EMSA: 1 ug protein, 50 fmol probe in 10 ul; 10 mM HEPES pH 7.9, 40 mM KCl, 1 mM EDTA, 1 mM DTT, 50 ng herring sperm DNA, 15 ug BSA, 10% glycerol, 1 h on ice; 5% native PAGE. The following applies: protein: recombinant; tags: N-terminal Trx (pET32a); label: 32P; 5' overhang 4 nt on each strand as annealed. In general terms: A gel shift assay detects complexes by their altered migration in electrophoresis.

B1: 5U-ZmPEPC1-3 (dsDNA)
DNA 1: ACGTGTCCCGTGCACAGCCACACACACACCCGCCCG
DNA 2: ATCACGGGCGGGTGTGTGTGTGGCTGTGCACGGGAC
Turning to B1, the binding result with Trx::ZmOrphan94 [1] is “binds”.

B2: 5U-ZmPEPC1-2 (dsDNA)
DNA 1: ACGTGCGAGGGCCGCCCGTTCCCGTGCACAGCCACG
DNA 2: ATCACGTGGCTGTGCACGGGAACGGGCGGCCCTCGC
As to B2, the binding result in the data set with Trx::ZmOrphan94 [2] was “binds”.

B3: 5U-ZmPEPC1-1 (dsDNA)
DNA 1: ACGTGGCGGTTACCGCCGATCACATGCCCAAGGCCG
DNA 2: ACATCGGCCTTGGGCATGTGATCGGCGGTAACCGCC
On to B3, for which the binding result with Trx::ZmOrphan94 [2] is given as “binds”.

Source of the values: publication PMC8062929, “ZmOrphan94 Transcription Factor Downregulates ZmPEPC1 Gene Expression in Maize Bundle Sheath Cells”.
